Results: patent US20250242021A1 (BLUESPHERE BIO, published 2025)

Target: HA-1 “H” peptide (…) presented on LCL222 cells (H/H)
Experiment: cell-based or functional assay

B1: anti-HA-1 “H” epitope TCR (TCR, V domains shown)
V domain 1: AQSVAQPEDQVNVAEGNPLTVKCTYSVSGNPYLFWYVQYPNRGLQFLLKYITGDNLVKGSYGFEAEFNKSQTSFHLKKPSALVSDSALYFCAVRAPTSGTYKYIFGTGTRLKVLA
V domain 2: GVSQDPRHKITKRGQNVTFRCDPISEHNRLYWYRQTLGQGPEFLTYFQNEAQLEKSRLLSDRFSAERPKGSFSTLEIQRTEQGDSAMYLCASSLVSGNEQFFGPGTRLTVLE
E:T ratio at which target cells were almost undetectable, cytotoxicity killing assay: 1.38 E:T ratio | EC50, cytotoxicity killing assay (E:T ratio): 0.49 E:T ratio
